Laboratory results: the supplement of paper PMC10724198
± gives the standard deviation of the averaged measurements.

Experiments:
[1] = tested on: Saccharomyces cerevisiae; experiment: protein stability index of tFT-peptide fusion (C-terminal peptide) (PSI (0-1 scale)); higher = more stable (slower turnover)
Method: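 MPS profiling in S. cerevisiae of the tFT-X12 degron library: putative degron peptides plus stable controls, 12 aa, fused to the C-terminus of a sfGFP-mCherry timer. Cells are FACS-sorted into 8 mCherry/sfGFP bins and deep-sequenced. PSI runs from 0 (unstable) to 1 (stable). Backgrounds are wild type, das1Δ and doa10Δ at 30 °C, and wild type, das1Δ, cdc34-1 and cdc53-1 at 37 °C; 2-3 technical replicates each.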

[2] = tested on: Saccharomyces cerevisiae; experiment: as above; conditions: genetic background: wild type; temperature: 30 C
[3] = genetic background: cdc34-1, temperature: 37 C
[4] = genetic background: cdc53-1, temperature: 37 C
[5] = genetic background: das1 deletion, temperature: 30 C
[6] = genetic background: das1 deletion, temperature: 37 C
[7] = genetic background: doa10 deletion, temperature: 30 C
[8] = genetic background: wild type, temperature: 30 C
[9] = genetic background: wild type, temperature: 37 C
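Note: PSI is a weighted mean of sequencing reads over stability bins, variants kept only with over 10 reads, mCherry proximal and sfGFP distal, peptide attached via GGGS linker.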

Sequence	protein stability index [1, 3]	protein stability index [1, 4]	protein stability index [1, 5]	protein stability index [1, 6]	protein stability index [1, 7]	protein stability index [1, 8]	protein stability index [1, 9]	protein stability index [2]
VWPLAFFLRFFI	0.547 ± 0.063	0.6021 ± 0.0019	0.529 ± 0.017	0.682 ± 0.017	0.247 ± 0.015	0.233 ± 0.013	0.3623 ± 0.0036	0.288 ± 0.014
IVGVLAVLVRPV	0.484 ± 0.029	0.561 ± 0.019	0.369 ± 0.03	0.5371 ± 0.0051	0.34 ± 0.011	0.376 ± 0.023	0.51 ± 0.017	0.466 ± 0.023
AKVSFYALARQY	0.665 ± 0.017	0.715 ± 0.018	0.636 ± 0.018	0.726 ± 0.016	0.323 ± 0.0065	0.355 ± 0.025	0.563 ± 0.0078	0.414 ± 0.036
VILCSCSFVLRP	0.523 ± 0.011	0.583 ± 0.023	0.373 ± 0.021	0.57243 ± 0.00022	0.362 ± 0.026	0.376 ± 0.02	0.5617 ± 0.0053	0.401 ± 0.0085
GVLLLGSYQWVG	0.306 ± 0.031	0.394 ± 0.021	0.368 ± 0.029	0.334 ± 0.0053	0.395 ± 0.008	0.373 ± 0.025	0.317 ± 0.0059	0.313 ± 0.007
YPCRLFVRSLLA	0.442 ± 0.05	0.436 ± 0.031	0.369 ± 0.023	0.498 ± 0.0098	0.205 ± 0.0068	0.235 ± 0.022	0.375 ± 0.019	0.32 ± 0.051
CSSLIMIITCVN	0.2613 ± 0.00064	0.289 ± 0.013	0.244 ± 0.031	0.4 ± 0.017	0.0883 ± 0.023	0.115 ± 0.0091	0.122 ± 0.027	0.199 ± 0.046
VFYWVGVLCGWG	0.298 ± 0.0073	0.391 ± 0.045	0.293 ± 0.026	0.4352 ± 0.0014	0.252 ± 0.012	0.29 ± 0.023	0.405 ± 0.018	0.375 ± 0.007
IWIHSVGVECTS	0.487 ± 0.011	0.494 ± 0.033	0.359 ± 0.036	0.544 ± 0.0068	0.315 ± 0.0044	0.358 ± 0.032	0.5186 ± 0.005	0.486 ± 0.019
RRLYERNKNNKQ	0.696 ± 0.024	0.741 ± 0.049	0.611 ± 0.036	0.729 ± 0.061	0.311 ± 0.019	0.387 ± 0.067	0.649 ± 0.013	0.435 ± 0.072
NYVVFVRGIKIT	0.585 ± 0.039	0.609 ± 0.02	0.533 ± 0.026	0.633 ± 0.011	0.104 ± 0.0022	0.114 ± 0.016	0.177 ± 0.016	0.186 ± 0.1
VLSCIPRLAIAA	0.335 ± 0.01	0.372 ± 0.019	0.284 ± 0.023	0.404 ± 0.008	0.235 ± 0.0017	0.251 ± 0.0058	0.318 ± 0.0072	0.327 ± 0.017
WLWYSPIAFTAL	0.632 ± 0.014	0.764 ± 0.041	0.64 ± 0.016	0.778 ± 0.02	0.11 ± 0.019	0.107 ± 0.0089	0.163 ± 0.0073	0.179 ± 0.015
SVLAIWLTVTLK	0.0666 ± 0.029	0.0696 ± 0.029	0.146 ± 0.016	0.197 ± 0.0027	0.0915 ± 0.023	0.0938 ± 0.034	0.139 ± 0.0076	0.145 ± 0.0018
VWCVFHVWSGRL	0.49 ± 0.035	0.585 ± 0.016	0.42 ± 0.023	0.6175 ± 0.0012	0.38 ± 0.007	0.409 ± 0.018	0.58 ± 0.012	0.494 ± 0.029
WGFLSVVCLSGV	0.501 ± 0.029	0.5235 ± 0.0052	0.4 ± 0.024	0.533 ± 0.015	0.384 ± 0.035	0.398 ± 0.013	0.522 ± 0.0023	0.458 ± 0.038
WGLPVGVESSGG	0.712 ± 0.03	0.761 ± 0.021	0.648 ± 0.028	0.761 ± 0.0095	0.64 ± 0.012	0.661 ± 0.032	0.733 ± 0.015	0.732 ± 0.03
FCVGVLFSCLVF	0.338 ± 0.041	0.412 ± 0.032	0.313 ± 0.021	0.4295 ± 0.0031	0.286 ± 0.0042	0.301 ± 0.019	0.43 ± 0.023	0.394 ± 0.019
EMISRNVFTYLS	0.684 ± 0.037	0.755 ± 0.012	0.619 ± 0.034	0.773 ± 0.023	0.394 ± 0.034	0.42 ± 0.023	0.6266 ± 0.0049	0.473 ± 0.03
